Patent US6140466

How the values were obtained:
[1] = target: Zif268 variant A14 finger 3 helix residues changed (FIG. 9) (synthetic (Zif268 variant)) (UniProt Q6NTY6); assay: SPR
[2] = target: Zif268 variant C9 finger 1 helix residues changed (FIG. 9) (synthetic (Zif268 variant)) (UniProt Q6NTY6); assay: SPR; settings: equivalent to Zif268
[3] = test system: Zif268 variant G4 finger 2 helix residues changed (FIG. 9) (synthetic (Zif268 variant)); assay: SPR
[4] = test system: Zif268 variant G6 finger 2 helix residues changed (FIG. 9) (synthetic (Zif268 variant)); assay: SPR
[5] = test system: MBP-C7-C7 (six-finger) (synthetic (Zif268 variant, mouse)); assay: EMSA
[6] = test system: MBP-Sp1C-C7 (six-finger) (synthetic (Sp1C/Zif268 variant)); assay: EMSA
[7] = target: MBP-Sp1C (synthetic (human Sp1 variant)) (UniProt P08047); assay: EMSA; settings: 0.1 mM ZnCl2, RT
Chain of MBP-Sp1C (synthetic (human Sp1 variant)) (P08047 626-708, change not shown): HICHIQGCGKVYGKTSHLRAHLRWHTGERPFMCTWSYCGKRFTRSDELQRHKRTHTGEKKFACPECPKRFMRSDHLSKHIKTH

[8] = test system: C7-C7-VP16 (synthetic (Zif268 variant)); assay: cell_activity; settings: HeLa luciferase reporter
[9] = target: Zif268 displayed on phage (Mus musculus) (UniProt P08046); assay: SELEX; settings: phage panning, same level as BSA
[10] = 0.1 mM ZnCl2, 100 mM KCl, poly(dI-dC), RT
[11] = 9 bp half-site, 0.1 mM ZnCl2, RT

Chain of Zif268 variant A14 finger 3 helix residues changed (FIG. 9) (synthetic (Zif268 variant)) (Q6NTY6 whole entry, change not shown): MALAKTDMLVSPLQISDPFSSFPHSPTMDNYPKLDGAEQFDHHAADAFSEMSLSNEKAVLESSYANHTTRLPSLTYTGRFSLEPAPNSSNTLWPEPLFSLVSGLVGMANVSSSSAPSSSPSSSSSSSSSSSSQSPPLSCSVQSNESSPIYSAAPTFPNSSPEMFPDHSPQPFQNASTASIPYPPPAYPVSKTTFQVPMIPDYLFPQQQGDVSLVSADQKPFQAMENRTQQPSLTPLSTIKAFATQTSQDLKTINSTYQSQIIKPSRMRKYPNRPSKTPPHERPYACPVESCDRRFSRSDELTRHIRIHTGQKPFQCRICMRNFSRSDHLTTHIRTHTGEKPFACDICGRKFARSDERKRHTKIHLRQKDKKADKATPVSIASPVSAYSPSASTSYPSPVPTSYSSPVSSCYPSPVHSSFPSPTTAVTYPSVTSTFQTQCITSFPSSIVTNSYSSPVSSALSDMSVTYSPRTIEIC
Chain of Zif268 variant C9 finger 1 helix residues changed (FIG. 9) (synthetic (Zif268 variant)) (Q6NTY6 whole entry, change not shown): as above

CCTGCGTGGGCGCCCTTTTGGGCGCCCACGCAGG [Z268N consensus hairpin]
binding signal (fold lower affinity than Zif268) [1]: 2 | binding signal (fold of Zif268 affinity) [2]: 1 | binding signal (fold weaker than TTG site) [3]: 4 | binding signal (fold weaker than TTG site) [4]: 4

CCTGCGTTGGCGCCCTTTTGGGCGCCAACGCAGG [TTG finger 2 hairpin (HIV-1 subsite)]
binding signal (fold of Zif268-consensus affinity) ([3]; equivalent to Zif268 on its consensus): 1 | binding signal (fold of Zif268-consensus affinity) ([4]; specificity by on-rate): 1

GATGTATGTAGCGGCGGCGGCGGCGGCGTAAGTAATGC (double strand) [(GCG)6 site probe]
Kd ([5]; 0.1 mM ZnCl2, RT): 17.3 nM

GATGTATGTAGCGTGGGCGGCGTGGGCGTAAGTAATGC (double strand) [C7-C7 site probe]
Kd [5, 10]: 0.46 nM | Kd ([6]; 0.1 mM ZnCl2, RT): 1.8 nM

GATGTATGTAGCGTGGGCGGGGGCGGGGTAAGTAATGC (double strand) [Sp1C-C7 site probe]
Kd [5, 10]: 2.4 nM | Kd [6, 10]: 0.55 nM

GATGTATGTAGCGTGGGCGTAAGTAATGC (double strand) [C7 site probe]
Kd [5, 11]: 6.1 nM | Kd [6, 11]: 4.9 nM

GATGTATGTAGGGGCGGGGTAAGTAATGC (double strand) [Sp1C site probe]
Kd [7]: 40.8 nM | Kd [6, 11]: 27.4 nM

GCGTGGGCG (double strand) [6x C7 site SV40 promoter reporter]
activity (fold activation) [8]: 3

GCGTGGGCGGCGTGGGCG (double strand) [6x C7-C7 site SV40 promoter reporter]
activity (fold activation) [8]: > 300

GCGTGGGCGGGGGCGGGG (double strand) [6x Sp1C-C7 site SV40 promoter reporter]
activity (fold activation) [8]: 3

TFIIIA fingers 1-3 site (panning)
binding signal (fold less than consensus) [9]: 9
